# Target: yAsf1 mutant V94R labeled with Alexa Fluor 532 (S. cerevisiae)
# Assay: other fluorescence titration
substance,measurement,value
X. laevis H3^C110A / H4^T71C labeled with the Qsy9 fluorescence quencher (complex),Kd,290 nM

# Source: paper PMC3141235
